The values below come from IntAct's records for PubMed 20847002.

B1: Probable peptidoglycan glycosyltransferase FtsW (Escherichia coli (strain K12)), P0ABG4 (parent)
chain: MRLSLPRLKMPRLPGFSILVWISTALKGWVMGSREKDTDSLIMYDRTLLWLTFGLAAIGFIMVTSASMPIGQRLTNDPFFFAKRDGVYLILAFILAIITLRLPMEFWQRYSATMLLGSIILLMIVLVVGSSVKGASRWIDLGLLRIQPAELTKLSLFCYIANYLVRKGDEVRNNLRGFLKPMGVILVLAVLLLAQPDLGTVVVLFVTTLAMLFLAGAKLWQFIAIIGMGISAVVLLILAEPYRIRRVTAFWNPWEDPFGSGYQLTQSLMAFGRGELWGQGLGNSVQKLEYLPEAHTDFIFAIIGEELGYVGVVLALLMVFFVAFRAMSIGRKALEIDHRFSGFLACSIGIWFSFQALVNVGAAAGMLPTKGLTLPLISYGGSSLLIMSTAIMMLLRIDYETRLEKAQAFVRGSR
partner: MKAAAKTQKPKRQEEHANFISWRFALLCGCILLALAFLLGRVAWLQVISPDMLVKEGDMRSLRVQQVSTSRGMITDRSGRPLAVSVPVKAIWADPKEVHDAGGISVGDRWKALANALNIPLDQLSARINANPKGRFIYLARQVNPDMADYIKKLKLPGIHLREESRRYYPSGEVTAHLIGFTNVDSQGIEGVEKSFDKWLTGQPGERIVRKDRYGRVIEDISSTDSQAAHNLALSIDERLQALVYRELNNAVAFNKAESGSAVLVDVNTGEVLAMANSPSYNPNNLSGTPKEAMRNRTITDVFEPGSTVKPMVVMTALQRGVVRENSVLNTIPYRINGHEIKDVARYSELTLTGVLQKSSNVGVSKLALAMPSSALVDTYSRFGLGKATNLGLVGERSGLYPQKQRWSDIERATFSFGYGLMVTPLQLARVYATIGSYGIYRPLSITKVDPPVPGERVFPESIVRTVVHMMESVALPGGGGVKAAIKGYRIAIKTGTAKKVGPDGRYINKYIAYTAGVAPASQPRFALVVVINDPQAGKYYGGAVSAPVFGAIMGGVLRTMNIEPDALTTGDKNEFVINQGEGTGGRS
B2: Peptidoglycan D,D-transpeptidase FtsI (Escherichia coli (strain K12)), P0AD68 (parent)
chain: B1 partner
partner: B1 chain
B3: Probable peptidoglycan glycosyltransferase FtsW (Escherichia coli (strain K12)), P0ABG4 (parent)
chain: B1 chain
partner: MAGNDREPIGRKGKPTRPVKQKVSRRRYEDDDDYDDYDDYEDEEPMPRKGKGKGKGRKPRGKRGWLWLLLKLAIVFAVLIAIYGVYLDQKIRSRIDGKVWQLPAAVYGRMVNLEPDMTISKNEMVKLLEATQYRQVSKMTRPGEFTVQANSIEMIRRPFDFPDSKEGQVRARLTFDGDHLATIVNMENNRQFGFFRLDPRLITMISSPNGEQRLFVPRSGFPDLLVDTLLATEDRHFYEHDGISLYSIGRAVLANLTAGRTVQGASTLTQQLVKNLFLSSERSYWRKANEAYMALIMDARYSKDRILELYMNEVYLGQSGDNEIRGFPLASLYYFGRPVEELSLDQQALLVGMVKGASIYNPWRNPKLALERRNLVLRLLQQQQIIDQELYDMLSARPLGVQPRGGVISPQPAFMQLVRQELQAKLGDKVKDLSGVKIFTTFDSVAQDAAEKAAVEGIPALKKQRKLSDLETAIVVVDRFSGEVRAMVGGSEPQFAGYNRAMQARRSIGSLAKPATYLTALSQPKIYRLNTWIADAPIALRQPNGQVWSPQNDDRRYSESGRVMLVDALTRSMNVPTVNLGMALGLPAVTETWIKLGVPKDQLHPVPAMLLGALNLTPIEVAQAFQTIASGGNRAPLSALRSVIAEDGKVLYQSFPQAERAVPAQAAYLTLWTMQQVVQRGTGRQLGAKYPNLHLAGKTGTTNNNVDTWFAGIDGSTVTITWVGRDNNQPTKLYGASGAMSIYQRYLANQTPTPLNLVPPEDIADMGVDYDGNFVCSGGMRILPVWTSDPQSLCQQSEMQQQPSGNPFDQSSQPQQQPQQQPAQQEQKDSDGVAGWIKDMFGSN

The variants in one assay derive from B1. As to conditions: with ftsi_ecoli ftsI.
For the variant MRLSLPRLKMPRLPGFSILVWISTALKGWVMGSREKDTDSLIMYDRTLLWLTFGLAAIGFIMVTSASMPIGQRLTNDPFFFAKRDGVYLILAFILAIITLRLPMEFWQRYSATMLLGSIILLMIVLVVGSSVKGASRWIDLGLLRIQPAELTKLSLFCYIANYLVRKGDEVRNNLRGFLKPMGVILVLAVLLLAQPDLGTVVVLFVTTLAMLFLAGAKLWQFIAIIGMGISAVVLLILAEPYRIRRVTAFWNPWEDPFGSGYQLTQSLMAFGRGELWGQGLGNSVQKLEYLPEAHTDFIFAIIGEELGYVGVVLALLMVFFVAFRAMSIGRKALEIDHRFSGFLACSIGIWFSFQALVNVGAAAGMLATKGLTLPLISYGGSSLLIMSTAIMMLLRIDYETRLEKAQAFVRGSR [P368A], the “effect of a mutation on the interaction” value is “decreasing interaction”.

As for MRLSLPRLKMPRLPGFSILVWISTALKGWVMGSREKDTDSLIMYDRTLLWLTFGLAAIGFIMVTSASMPIGQRLTNDPFFFAKRDGVYLILAFILAIITLRLPMEFWQRYSATMLLGSIILLMIVLVVGSSVKGASRWIDLGLLRIQPAELTKLSLFCYIANYLVRKGDEVRNNLRGFLKPMGVILVLAVLLLAQPDLGTVVVLFVTTLAMLFLAGAKLWQFIAIIGMGISAVVLLILAEPYRIRRVTAFWNPWEDPFGSGYQLTQSLMAFGRGELWGQGLGNSVQKLEYLPEAHTDFIFAIIGEELGYVGVVLALLMVFFVAFRAMSIGRKALEIDHRFSGFLACSIGIWFSFQALVNVGAAAGMLPTKGLTLALISYGGSSLLIMSTAIMMLLRIDYETRLEKAQAFVRGSR [P375A], the “effect of a mutation on the interaction” value is “decreasing interaction”.

Variants of B2 are the subject of the next assay. The note with it: with ftsw_ecoli ftsW.
Take MKAAAKTQKPKRQEEHANFISWCFALLCGCILLALAFLLGRVAWLQVISPDMLVKEGDMRSLRVQQVSTSRGMITDRSGRPLAVSVPVKAIWADPKEVHDAGGISVGDRWKALANALNIPLDQLSARINANPKGRFIYLARQVNPDMADYIKKLKLPGIHLREESRRYYPSGEVTAHLIGFTNVDSQGIEGVEKSFDKWLTGQPGERIVRKDRYGRVIEDISSTDSQAAHNLALSIDERLQALVYRELNNAVAFNKAESGSAVLVDVNTGEVLAMANSPSYNPNNLSGTPKEAMRNRTITDVFEPGSTVKPMVVMTALQRGVVRENSVLNTIPYRINGHEIKDVARYSELTLTGVLQKSSNVGVSKLALAMPSSALVDTYSRFGLGKATNLGLVGERSGLYPQKQRWSDIERATFSFGYGLMVTPLQLARVYATIGSYGIYRPLSITKVDPPVPGERVFPESIVRTVVHMMESVALPGGGGVKAAIKGYRIAIKTGTAKKVGPDGRYINKYIAYTAGVAPASQPRFALVVVINDPQAGKYYGGAVSAPVFGAIMGGVLRTMNIEPDALTTGDKNEFVINQGEGTGGRS [R23C]: the “effect of a mutation on the interaction” value is reported as “decreasing interaction strength”.

Variants of B3 are the subject of a further assay. The note with it: with pbpb_ecoli mrcB.
For the variant MRLSLPRLKMPRLPGFSILVWISTALKGWVMGSREKDTDSLIMYDRTLLWLTFGLAAIGFIMVTSASMPIGQRLTNDPFFFAKRDGVYLILAFILAIITLRLPMEFWQRYSATMLLGSIILLMIVLVVGSSVKGASRWIDLGLLRIQPAELTKLSLFCYIANYLVRKGDEVRNNLRGFLKPMGVILVLAVLLLAQPDLGTVVVLFVTTLAMLFLAGAKLWQFIAIIGMGISAVVLLILAEPYRIRRVTAFWNPWEDPFGSGYQLTQSLMAFGRGELWGQGLGNSVQKLEYLPEAHTDFIFAIIGEELGYVGVVLALLMVFFVAFRAMSIGRKALEIDHRFSGFLACSIGIWFSFQALVNVGAAAGMLATKGLTLPLISYGGSSLLIMSTAIMMLLRIDYETRLEKAQAFVRGSR [P368A], the “effect of a mutation on the interaction” value is given as “decreasing interaction”.

For the variant MRLSLPRLKMPRLPGFSILVWISTALKGWVMGSREKDTDSLIMYDRTLLWLTFGLAAIGFIMVTSASMPIGQRLTNDPFFFAKRDGVYLILAFILAIITLRLPMEFWQRYSATMLLGSIILLMIVLVVGSSVKGASRWIDLGLLRIQPAELTKLSLFCYIANYLVRKGDEVRNNLRGFLKPMGVILVLAVLLLAQPDLGTVVVLFVTTLAMLFLAGAKLWQFIAIIGMGISAVVLLILAEPYRIRRVTAFWNPWEDPFGSGYQLTQSLMAFGRGELWGQGLGNSVQKLEYLPEAHTDFIFAIIGEELGYVGVVLALLMVFFVAFRAMSIGRKALEIDHRFSGFLACSIGIWFSFQALVNVGAAAGMLPTKGLTLALISYGGSSLLIMSTAIMMLLRIDYETRLEKAQAFVRGSR [P375A], the “effect of a mutation on the interaction” value is “decreasing interaction”.
